# B1: Eukaryotic initiation factor 4F subunit p150 (Saccharomyces cerevisiae), P39935 (parent)
# chain: MTDETAHPTQSASKQESAALKQTGDDQQESQQQRGYTNYNNGSNYTQKKPYNSNRPHQQRGGKFGPNRYNNRGNYNGGGSFRGGHMGANSSNVPWTGYYNNYPVYYQPQQMAAAGSAPANPIPVEEKSPVPTKIEITTKSGEHLDLKEQHKAKLQSQERSTVSPQPESKLKETSDSTSTSTPTPTPSTNDSKASSEENISEAEKTRRNFIEQVKLRKAALEKKRKEQLEGSSGNNNIPMKTTPENVEEKGSDKPEVTEKTKPAEEKSAEPEVKQETPAEEGEQGEKGQIKEESTPKVLTFAERLKLKKQQKEREEKTEGKENKEVPVQEETKSAIESAPVPPSEQVKEETEVAETEQSNIDESATTPAIPTKSDEAEAEVEAEAGDAGTKIGLEAEIETTTDETDDGTNTVSHILNVLKDATPIEDVFSFNYPEGIEGPDIKYKKEHVKYTYGPTFLLQFKDKLNVKADAEWVQSTASKIVIPPGMGRGNRSRDSGRFGNNSSRGHDFRNTSVRNMDDRANSRTSSKRRSKRMNDDRRSNRSYTSRRDRERGSYRNEEKREDDKPKEEVAPLVPSANRWVPKFKSKKTEKKLAPDGKTELLDKDEVERKMKSLLNKLTLEMFDAISSEILAIANISVWETNGETLKAVIEQIFLKACDEPHWSSMYAQLCGKVVKELNPDITDETNEGKTGPKLVLHYLVARCHAEFDKGWTDKLPTNEDGTPLEPEMMSEEYYAAASAKRRGLGLVRFIGFLYRLNLLTGKMMFECFRRLMKDLTDSPSEETLESVVELLNTVGEQFETDSFRTGQATLEGSQLLDSLFGILDNIIQTAKISSRIKFKLIDIKELRHDKNWNSDKKDNGPKTIQQIHEEEERQRQLKNNSRSNSRRTNNSSNRHSFRRDAPPASKDSFITTRTYSQRNSQRAPPPKEEPAAPTSTATNMFSALMGESDDEE
# partner: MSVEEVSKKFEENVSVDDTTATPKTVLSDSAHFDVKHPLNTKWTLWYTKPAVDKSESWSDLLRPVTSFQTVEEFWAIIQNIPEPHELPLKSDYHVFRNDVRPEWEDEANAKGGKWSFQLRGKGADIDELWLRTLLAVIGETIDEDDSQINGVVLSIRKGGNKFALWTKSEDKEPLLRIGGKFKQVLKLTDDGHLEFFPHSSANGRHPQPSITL
# Variants of: B1
# Conditions: with if4e_yeast CDC33, P07260
row,effect of a mutation on the interaction,Variant
1,decreasing interaction strength,V213A;K214A;L215A;R216A;L457A;L458A
2,decreasing interaction,L457A;L458A

# From IntAct's records for PubMed 21139564
